US11124558B2, “Use of tetranectin and peptide agonists to treat inflammatory diseases” (The Feinstein Institutes for Medical Research, priority 2017, dated 2021)
Read-outs that look alike come from different tables or passages of the source.

Tests used:
[1] = tested on: HMGB1 release, primary murine peritoneal macrophages; experiment: LPS- or SAA-induced HMGB1 release in primary murine peritoneal macrophages (Western blotting); type: cell-based; settings: for inhibition of LPS- or SAA-induced HMGB1 release: primary murine peritoneal macrophages, 16 h, serum-free OPTI-MEM I, TN from HEK293 or E. coli
Description: (§1) A, B, Primary murine peritoneal macrophages. C, Primary human peripheral blood mononuclear cells (HuPBMCs). Murine macrophages or human monocytes (HuPBMCs) were cultured in serum-free OPTI-MEM I medium, and stimulated with LPS or SAA for 16 h at the indicated concentrations. The extracellular HMGB1 levels were determined by Western blotting, and expressed as % of maximal stimulation by LPS or SAA alone.
(§2) Immune-modulating properties of tetranectin: To explore TN's immune-modulating properties, its effects on the LPS- and SAA-induced HMGB1 release were examined in murine macrophage and human monocyte cultures. […] This inhibition was TN-dose-dependent, evident at concentrations as low as 5.0 μg/ml, and became more dramatic (with 50-100% inhibition) at higher doses.
(§3) Effects of TN on the LPS-, IFN-γ-, or SAA-induced HMGB1 release. To elucidate the regulatory mechanisms of HMGB1 release, we will examine the impact of TN and its peptide agonists on the HMGB1 release induced by a wide array of inflammatory stimuli including the crude LPS [75], IFN-γ [76] and SAA [77], in macrophage and monocyte cultures. Primary peritoneal macrophages will be isolated from the Balb/C mice (both male and female, 7-8 weeks, 20-25 g) at 2-3 days after intraperitoneal injection of 2 ml thioglycollate broth (4%, Difco, Detroit, Mich.) as previously described. Human peripheral blood mononuclear cells (HuPBMCs) will be isolated from human blood obtained from the Long Island Blood Bank (NY) by density gradient centrifugation through Ficoll as previously described. At 80-90% confluence, macrophage/monocyte cultures will be stimulated with the crude LPS (Cat. No. L3012, Sigma-Aldrich), IFN-γ (Cat. No. 14777, Sigma-Aldrich), or SAA (Cat. No. 300-13, PeproTech) at different concentrations and for various time periods. The extracellular levels of HMGB1 in the culture medium will be determined by Western blotting as previously described.

[2] = tested on: HMGB1 release, human peripheral blood mononuclear cells (HuPBMCs); experiment: LPS- or SAA-induced HMGB1 release in primary human peripheral blood mononuclear cells (Western blotting); type: cell-based; settings: for inhibition of LPS- or SAA-induced HMGB1 release: HuPBMCs / human monocytes, 16 h, TN from HEK293 or E. coli
Description: as §1, §2, §3

[3] = tested on: GRO/CXCL1 and ENA-78/CXCL5 secretion, HuPBMCs; experiment: Cytokine/chemokine secretion by HuPBMCs (Cytokine Antibody Arrays); type: cell-based; settings: primary human monocytes / HuPBMCs, TN 20 μg/ml, 16 h
Description: Human blood was purchased from the Long Island Blood Bank, and HuPBMCs were isolated by density gradient centrifugation through Ficoll, and stimulated with recombinant TN (20 μg/ml) expressed in HEK293 or E. coli for 16 h. The extracellular levels of cytokines and chemokines were determined by Cytokine Antibody Arrays.
In light of the protective roles of these neutrophil-attracting chemokines, CXCL1/KC [67,68] and CXCL5/ENA-78 [69,70] in LSI, it is important to determine whether TN could modulate leukocyte infiltration to facilitate potential pathogen elimination during sepsis.

[4] = tested on: circulating D-dimer, endotoxemic Balb/C mice; experiment: Plasma D-dimer level in endotoxemic mice (ELISA); type: in vivo; settings: 24 h post endotoxemia
Description: Venous blood was obtained from normal healthy and endotoxemic, Balb/C mice at 24 h post endotoxemia in the absence or presence of recombinant TN. The plasma level of fibrin degradation product (FDP's, e.g., D-dimer) was measured using commercial ELISA kit (Cat. No. EKU03631, Biomatik) as per the manufacturers' instructions. *, P<0.05 as compared to the positive control (+LPS alone).
In light of HMGB1's key role in the platelet activation/aggregation and its possible interaction with TN protein, the impact of TN or TN-specific peptide agonists on the pro-fibrinolytic activities is evaluated by measuring the plasma level of fibrin degradation products (FDP's, e.g., D-dimer) using commercial ELISA kits (Cat. No. EKU03631, Biomatik) as per the manufacturers' instructions. A parallel elevation of D-dimer levels is indicative of a possible acceleration of the fibrinolysis cascade by the TN treatment. However, a decrease in the D-dimer concentration is indicative of a reduction of either the plasmin-mediated fibrinolysis or the thrombin-mediated coagulation. […] Given the complex roles of fibrinolysis in sepsis, therapeutic agents that could control coagulation/fibrinolysis balance, while maintaining the host defense at the infectious foci, can be useful for understanding the complex pathogenesis of lethal systemic inflammatory diseases.

plasminogen (PLMG) = plasminogen (PLMG) (Homo sapiens, UniProt P00747); settings: cited from earlier work
Sequence of plasminogen (PLMG) (P00747 20-810 limits assumed): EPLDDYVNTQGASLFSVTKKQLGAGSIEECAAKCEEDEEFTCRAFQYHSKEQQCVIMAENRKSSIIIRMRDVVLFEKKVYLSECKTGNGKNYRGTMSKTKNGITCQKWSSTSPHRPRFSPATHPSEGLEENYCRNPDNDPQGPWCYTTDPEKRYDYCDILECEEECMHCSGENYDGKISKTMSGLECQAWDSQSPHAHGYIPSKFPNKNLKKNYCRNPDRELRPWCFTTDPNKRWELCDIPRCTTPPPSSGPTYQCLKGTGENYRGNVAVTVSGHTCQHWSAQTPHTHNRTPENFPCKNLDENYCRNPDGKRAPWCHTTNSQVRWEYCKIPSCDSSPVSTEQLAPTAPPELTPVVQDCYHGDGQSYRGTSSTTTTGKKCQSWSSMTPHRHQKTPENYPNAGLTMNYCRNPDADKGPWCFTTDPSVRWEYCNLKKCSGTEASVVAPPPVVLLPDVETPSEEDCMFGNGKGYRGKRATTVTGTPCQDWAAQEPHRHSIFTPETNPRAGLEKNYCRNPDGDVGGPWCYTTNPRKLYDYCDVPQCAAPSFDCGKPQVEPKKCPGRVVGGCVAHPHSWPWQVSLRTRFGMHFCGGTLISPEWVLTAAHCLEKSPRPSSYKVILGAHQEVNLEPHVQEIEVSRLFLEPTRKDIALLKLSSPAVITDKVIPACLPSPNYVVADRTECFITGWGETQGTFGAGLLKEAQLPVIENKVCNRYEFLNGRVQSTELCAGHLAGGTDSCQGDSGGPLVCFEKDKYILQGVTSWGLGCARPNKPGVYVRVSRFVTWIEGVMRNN

[5] = target: apolipoprotein A1 (Apo-A1); settings: ref [58]; read-out: Kd of TN binding to Apo-A1; cited from earlier work
[6] = listed as recombinant human TN protein

B1: tetranectin (protein, listed as Homo sapiens)
chain: EPPTQKPKKIVNAKKDVVNTKMFEELKSRLDTLAQEVALLKEQQALQTVCLKGTKVHMKCFLAFTQTKTFHEASEDCISRGGTLGTPQTGSENDALYEYLRQSVGNEAEIWLGLNDMAAEGTWVDMTGARIAYKNWETEITAQPDGGKTENCAVLSGAANGKWFDKRCRDQLPYICQFGIV
With B1 as the molecule, how does the “effect on LPS- or SAA-induced release of most other cytokines (G-CSF, IL-6, IL-12) and chemokines (KC, LIX, MIP-1α, MIP-2, RANTES)” value ([1]; data not shown, cells not specified) read?
The value was “did not inhibit”.

What about the “lowest concentration at which inhibition of HMGB1 release was evident” value ([1]; murine macrophages) of the same molecule?
The value was 5.0 µg/mL.

And the “inhibition of LPS- or SAA-induced HMGB1 release” value [1]?
The value was “dose-dependently inhibited”.

And the “inhibition of LPS- or SAA-induced HMGB1 release” value [1, 6]?
Its value is “capable of inhibiting”.

And the “inhibition of LPS- or SAA-induced HMGB1 release” value [2]?
The value was “dose-dependently inhibited”.

And the “inhibition of LPS- or SAA-induced HMGB1 release” value [2, 6]?
Its value is “capable of inhibiting”.

And the “lowest concentration at which inhibition of HMGB1 release was evident” value ([2]; human monocytes)?
Its value is 5.0 µg/mL.

And the “inhibition of HMGB1 release at higher doses” value ([2]; human monocytes, doses above 5.0 μg/ml)?
Its value is 50-100%.

What about the “release of neutrophil-attracting chemokines (CXCL1/GRO-α/KC and CXCL5/ENA-78)” value (“release … (CXCL1/GRO-α/KC and CXCL5/ENA-78)” for short) [3] of the same molecule?
Its value is “induced the release”.

And the “release … (CXCL1/GRO-α/KC and CXCL5/ENA-78)” value ([3]; listed as Recombinant TN)?
The value was “specifically induced”.

What about the “release … (CXCL1/GRO-α/KC and CXCL5/ENA-78)” value ([3]; listed as recombinant TN) of the same molecule?
Its value is “specifically stimulated”.

And the “effect on endotoxin-induced elevation of circulating D-dimer levels” value ([4]; P<0.05 vs +LPS alone)?
The value was “significantly attenuated”.

What about the “reduction of plasma D-dimer levels” value ([4]; at doses that conferred significant protection) of the same molecule?
Its value is 40-50%.

What about the Kd (plasminogen (PLMG); ref [57], read-out: Kd of calcium-sensitive TN-PLMG interaction) of the same molecule?
Its Kd is 500 nM.

What about the Kd (plasminogen (PLMG); ref [74], read-out: Kd of TN-PLMG interaction) of the same molecule?
The Kd was 500 nM.

What about the Kd [5] of the same molecule?
The Kd was 13 nM.
